Results reported in patent publication US11427805B2, “Methods of producing human foregut endoderm cells expressing PDX1 from human definitive endoderm” (ViaCyte, Inc., priority 2005, dated 2022).

What was measured:
hESCs [1] = assay: Antibody labeling (immunocytochemistry) of differentiating hESCs for SOX17 and AFP; format: cell-based, human
Excerpt: However, AFP and SOX7 are not expressed in definitive endoderm cells at levels detectable by ICC, and thus, they can be employed as negative markers for bonifide definitive endoderm cells. It was shown that SOX17 antibody labels populations of cells that exist as discrete groupings of cells or are intermingled with AFP positive cells. […] Similarly, since parietal endoderm has been reported to express SOX17, antibody co-labeling with SOX17 together with the parietal markers SPARC and/or Thrombomodulin (TM) can be used to identify the SOX17^+ cells that are parietal endoderm. As shown in FIGS. 6A-C, Thrombomodulin and SOX17 co-labeled parietal endoderm cells were produced by random differentiation of hES cells.
With the SOX17 antibody and Q-PCR tools described above we have explored a number of procedures capable of efficiently programming hESCs to become SOX17^hi/AFP^lo/SPARC/TM^lo definitive endoderm cells. We applied a variety of differentiation protocols aimed at increasing the number and proliferative capacity of these cells as measured at the population level by Q-PCR for SOX17 gene expression and at the level of individual cells by antibody labeling of SOX17 protein.
To determine the effect of TGFβ factor treatment at the individual cell level, a time course of TGFβ factor addition was examined using SOX17 antibody labeling. […]

hESCs [2] = assay: Q-PCR of germ layer marker genes (MIXL1, GATA4, HNF3b, SOX7, SPARC, ZIC1, Brachyury) in differentiating hESCs; format: cell-based, human
Excerpt: We routinely used Q-PCR to measure the gene expression of multiple markers of target and non-target cell types in order to provide a broad profile description of gene expression in cell samples. The markers relevant for the early phases of hESC differentiation (specifically ectoderm, mesoderm, definitive endoderm and extra-embryonic endoderm) and for which validated primer sets are available are provided below in Table 1. […] This is an important fact since the hESCs were often grown on mouse feeder layers. Most typically, triplicate samples were taken for each condition and independently analyzed in duplicate to assess the biological variability associated with each quantitative determination.
To generate PCR template, total RNA was isolated using RNeasy (Qiagen) and quantitated using RiboGreen (Molecular Probes). Reverse transcription from 350-500 ng of total RNA was carried out using the iScript reverse transcriptase kit (BioRad), which contains a mix of oligo-dT and random primers. Each 20 μL reaction was subsequently diluted up to 100 μL total volume and 3 μL was used in each 10 μL Q-PCR reaction containing 400 nM forward and reverse primers and 5 μL 2×SYBR Green master mix (Qiagen). Two step cycling parameters were used employing a 5 second denature at 85-94° C. (specifically selected according to the melting temp of the amplicon for each primer set) followed by a 45 second anneal/extend at 60° C. Fluorescence data was collected during the last 15 seconds of each extension phase. A three point, 10-fold dilution series was used to generate the standard curve for each run and cycle thresholds (Ct's) were converted to quantitative values based on this standard curve. The quantitated values for each sample were normalized to housekeeping gene performance and then average and standard deviations were calculated for triplicate samples. At the conclusion of PCR cycling, a melt curve analysis was performed to ascertain the specificity of the reaction. A single specific product was indicated by a single peak at the Tm appropriate for that PCR amplicon.
Definitive endoderm cells were predicted to express high levels of SOX17 mRNA and low levels of AFP and SOX7 (visceral endoderm), SPARC (parietal endoderm) and Brachyury (mesoderm). In addition, ZIC1 was used here to further rule out induction of early ectoderm. Finally, GATA4 and HNF3b were expressed in both definitive and extra-embryonic endoderm, and thus, correlate with SOX17 expression in definitive endoderm (Table 1).

B1: activin A (protein, UniProt P08476 311-426, looked up)
Inhibin beta A chain: GLECDGKVNICCKKQFFVSFKDIGWNDWIIAPSGYHANYCEGECPSHIAGTSGSSLSFHSTVINHYRMRGHSPFANLKSCCVPTKLRPMSMLYYDDGQNIIKKDIQNMIVEECGCS
modifications: Inhibin beta A chain
Question: With B1 as the molecule, how does the “dose dependence of SOX17+ cell number” value (hESCs [1]; FIG. 22) read?
Answer: Its value is “dose-dependent increase”.

Question: What about the “difference in SOX17 antibody-labeled cell number” value (hESCs [1]; hESCs treated with activin A vs retinoic acid (FIG. 7B)) of the same molecule?
Answer: Its value is 10 fold.

Question: What about the “mesoderm differentiation (brachyury expression)” value (hESCs [2]; 100 ng/ml (FIG. 14B)) of the same molecule?
Answer: Its value is “notable suppression”.

Question: What about the “effect on neural differentiation (ZIC1 expression)” value (hESCs [2]; activin A dose series (FIG. 14A)) of the same molecule?
Answer: The value was “not a dose-dependent effect”.

Question: What about the “expression of definitive endoderm markers MIXL1, GATA4 and HNF3b” value (hESCs [2]; activin A dose series (FIGS. 12A-C)) of the same molecule?
Answer: Its value is “dose-dependent increases”.

Question: What about the “expression of primitive endoderm (SOX7) and parietal endoderm (SPARC) markers” value (hESCs [2]; activin A dose series (FIGS. 13B-C)) of the same molecule?
Answer: Its value is “remain either unchanged or exhibit suppression at some time points”.
